According to patent US20230203156A1, “ANTI-MDR1 ANTIBODIES AND USES THEREOF” (KENJOCKETY BIOTECHNOLOGY, INC., priority 2020, published 2023):

How the values were obtained:
[1] = molecular target: T1, human MDR1 extracellular loops 1 and 4 (ECD1, ECD4) (Homo sapiens, UniProt P08183); assay: Epitope mapping with mutant human MDR1 expressed on 293T cells (flow cytometry); type: binding; conditions: extracellular loop 1 and extracellular loop 4
T1 construct: FLAG (C); expressed in transfected cells; host or cells: 293T
Description: To determine binding of anti-MDR1 mAbs listed in Table 2 to the two major extracellular loops 1 and 4 of MDR1, various mutations were constructed to alter or substitute these two loops. To examine binding to cynomolgus extracellular loops, the extracellular loop 1 and/or loop 4 of cynomolgus MDR1 were grafted (with a C-terminal FLAG tag) to substitute for the human loops in the human MDR1 using standard techniques. To examine binding dependence on the normal human loops, MDR1 variants with deletion 79-102 and deletion 82-99 in loop 1 were also generated. Loop 1 is also referred to as ECD1. Loop 4 is also referred to as ECD4. These mutant MDR1 efflux pump variants were expressed on 293T cells using standard methods to generate cells that could be used to distinguish binding of various anti-MDR1 mAbs. The different cells were incubated with different anti-MDR1 mAbs for about 1 hour at 4° C. The cells were washed twice with FACS buffer (PBS containing 0.5% BSA). Alexa647 labeled goat anti-human antibody was added as a secondary antibody, and the samples were incubated on ice for another 1 hour. Samples were washed again and analyzed by flow cytometry.
FIG. 9 summarizes the findings from preliminary epitope mapping using mutant human MDR1. […] For example, anti-MDR1 mAb B1.129 requires ECD1 and ECD4 for binding to human MDR1. All of the anti-MDR1 antibodies contact ECD4. […] ECD1 refers to the first extracellular domain of human ABCB1, ECD4 refers to the fourth extracellular domain of human ABCB1 and “others” refers to the remainder of the extracellular domains 2-3 and 5-6 of human ABCB1. Only binding to ECD1 and ECD4 was tested.

[2] = system: A2780 ADR ovarian carcinoma; assay: A2780 ADR drug-resistant ovarian carcinoma model in nude mice; type: in vivo; conditions: for tumor volume, single agent: antibody as a single agent; for tumor volume, in combination with paclitaxel: antibody plus paclitaxel
Procedure: Anti-ABCB1 antibodies B1.129, B1.261, B1.223, B1.225, B1.188, B1.28, and B1.226 were tested for effect on growth of tumors in immunodeficient mice. The following cancer cell lines were used for generating tumor models.
A2780 ADR: The adriamycin-resistant cell line A2780ADR has been developed by exposure of the parent A2780 cell line (Sigma catalogue no. 93112519) to adriamycin. A2780ADR is cross-resistant to melphalan and vinblastine. To retain resistance adriamycin has to be added to the media. The cells grow as a monolayer and in suspension in spinner cultures and are tumorigenic in immune deficient mice. Together with the cisplatin-resistant variant A2780cis these lines only differ in their exposure to a single drug and should facilitate the search for molecular changes responsible for the expression of pleiotropic drug resistance in human ovarian cancer.
Nude mice were implanted with A2780 ADR cells to model ovarian carcinoma. Anti-B1 monoclonal antibodies are efficacious in A2780 ADR ovarian carcinoma model in nude mice.

Row | Molecule | epitope on human MDR1 [1] | tumor volume, single agent [2] | tumor volume, in combination with paclitaxel [2]
1 | B1.236: anti-MDR1 antibody, Mouse; VH SEQ ID NO:115, VL SEQ ID NO:116 (antibody, listed as Mus musculus, V domains shown) VH: EAQLVESGGALVKPGGSLKLSCSASGFTFSNYAMSWVRQTPEKRLEWVATISSGGTNTYYPGSVKGRFTIARDNAKNTLYLLMSSLRSEDTALYFCAKYSNLAWFASWGQGTLVTVSA VL: QIVLTQSPLSLPVSLGDQASISCRSSQSLVHSIGNTYLEWYLQKPGQSPKFLISKVSNRFSGVPDRFSGSGSGTDFTLKISRVEAEDLGIYYCFQGSHVPYTFGGGTKLEIK | bind to an epitope comprising extracellular loop 1 and extracellular loop 4 | – | –
2 | B1.188: anti-MDR1 antibody, Mouse; VH SEQ ID NO:66, VL SEQ ID NO:79 (antibody, listed as Mus musculus, V domains shown) VH: EVMLVESGGALVKPGGSLKLSCAASGFTFSNYAMSWVRQTPEKRLEWVATISSGGSYTYYPDSVKGRFTISRDNARNTLYLQMSSLRSEDTAMYYCARGYGNFAWFAYWGQGTLVTVSA VL: DIQMTQSPLSLPVSLGDQASISCRSSQSIVHSTGNTYLEWYLQKPGQSPKLLIYKVSNRFSGVPDRFSGSGSGTDFTLKISRVEAEDLGVYYCFQGSHVPFTFGSGTKLEIK | – | decreased tumor volume | decreased tumor volume
3 | B1.226: anti-MDR1 antibody, Mouse; VH SEQ ID NO:112, VL SEQ ID NO:113 (antibody, listed as Mus musculus, V domains shown) VH: EVQLVESGGALVKPGGSLKLSCAASGFTFSNYAMSWVRQTPETRLEWVATISSGGSYTYYPDSVKGRFTISRDNAKNTLYLQMSSLRSEDTALYYCARYSNLAWFAYWGQGTLVTVSA VL: DVVMTQTPLSLPVSLGDQASISCRSSQSIVHSNGNTYLDWYLQKPGQSPKFMIYKVSNRFSGVPDRFSGSGSGTDFTLKISRVEAEDLGVYYCFQGSHVPYTFGGGTKLEIK | – | decreased tumor volume | decreased tumor volume
4 | B1.198: anti-MDR1 antibody, Mouse; VH SEQ ID NO:88, VL SEQ ID NO:90 (antibody, listed as Mus musculus, V domains shown) VH: EVQLVESGGALVKPGGSLKLSCAASGFTFSNYAMSWVRQTPEKRLEWVATISSGGSYTYYPDSVKGRFTISRDNAKNTLYLQMSSLRSEDTALYYCAKYSNYGRFAYWGQGTLVTVSA VL: DVVMTQTPLSLPVSLGDQASISCRSSQSIVDSNGNTYLEWYLQKPGQSPKLLIYKVSNRFFGVPDRFSGSGSGTDFTLKISRVEAEDLGVYYCFQGSHVPYTFGGGTKLEIK | bind to an epitope comprising extracellular loop 1 and extracellular loop 4 | – | –
5 | B1.219: anti-MDR1 antibody, Mouse; VH SEQ ID NO:99, VL SEQ ID NO:101 (antibody, listed as Mus musculus, V domains shown) VH: EVQLVESGGALVKPGGSLKLSCAASGFTFSNYAMSWVRQTPEKRLEWVATISSVGSYTYYPDSVKGRFTISRDNAKTTLYLQMSGLRSEDTALYYCAKYSNYGRFASWGQGTLVTVST VL: DVLMTQTPLSLPASLGDQASISCRSSQSIVHSSGNTYLEWYLQKPGQSPRLLIYKVSNRFFGVPDRISGSGSGTDFTLRISRVEAEDLGVYYCFQGSHVPYTFGGGTKLEIE | bind to an epitope comprising extracellular loop 1 and extracellular loop 4 | – | –
6 | B1.201: anti-MDR1 antibody, Mouse; VH SEQ ID NO:92, VL SEQ ID NO:95 (antibody, listed as Mus musculus, V domains shown) VH: EVQLVESGGALMKPGGSLKFSCAASGFTFTNYAMSWVRQTPEKRLEWVATISSGGSNTYYSDSVKGRFTISRDNAKTTLYLQMSGLRSEDTALYYCAKFSNFGRFASWGQGTLVTVSA VL: DVLMTQTPLSLPVSLGDQASISCRFSQSIVHSSGNTYLEWYLQKPGQSPRLLIYKVSNRFFGVPDRISGSGSGTDFTLRISRVEAEDLGVYYCFQGSHVPYTFGGGTKLEIK | bind to an epitope comprising extracellular loop 1 and extracellular loop 4 | – | –
7 | B1.207: anti-MDR1 antibody, Mouse; VH SEQ ID NO:74, VL SEQ ID NO:76 (antibody, listed as Mus musculus, V domains shown) VH: GVQLVESGGALVKPGGSLKLSCAASGFTFSNYAMSWVRQTPEKRLEWVATISSGGSYTYYPDSVKGRFTISRDNAKTTLYLQMSGLRSEDTALYYCAKYSNYGRFASWGQGTLVTVST VL: DVLMTQTPLSLPVSLGDQASISCRSSQSIVHSSGNTYLEWYLQKPGQSPRLLIYKVSNRFFGVPDRISGSGSGTDFTLRISRVEAEDLGVYYCFQGSHVPYTFGGGTKLEIK | bind to an epitope comprising extracellular loop 1 and extracellular loop 4 | – | –
8 | B1.184: anti-MDR1 antibody, Mouse; VH SEQ ID NO:74, VL SEQ ID NO:76 (antibody, listed as Mus musculus, V domains shown) VH: GVQLVESGGALVKPGGSLKLSCAASGFTFSNYAMSWVRQTPEKRLEWVATISSGGSYTYYPDSVKGRFTISRDNAKTTLYLQMSGLRSEDTALYYCAKYSNYGRFASWGQGTLVTVST VL: DVLMTQTPLSLPVSLGDQASISCRSSQSIVHSSGNTYLEWYLQKPGQSPRLLIYKVSNRFFGVPDRISGSGSGTDFTLRISRVEAEDLGVYYCFQGSHVPYTFGGGTKLEIK | bind to an epitope comprising extracellular loop 1 and extracellular loop 4 | – | –
9 | B1-open.273(A): anti-MDR1 antibody, Mouse; VH SEQ ID NO:155, VL SEQ ID NO:159 (antibody, listed as Mus musculus, V domains shown) VH: QVQLQQSGPELVKTGASVKISCKASGYSFSNYYIHWVKQSHGKSLEWIGFISCYNGATFYNQKFKGKATFTVDTSSSTAYMKFNSLTFEDSAVYYCARLPIQFGNFYPMDYWGQGTSVTVSS VL: QIVLTQSPAIMSASLGERVTMTCTASSSVSSSYLHWYQQKPGSSPKLWIYSTSNLASGVPARFSGSGSGTSYSLTISSMEAEDAATYYCHQYHRSPPTFGAGTKLELK | bind to an epitope comprising extracellular loop 1 and extracellular loop 4 | – | –
10 | B1.225: anti-MDR1 antibody, Mouse; VH SEQ ID NO:105, VL SEQ ID NO:109 (antibody, listed as Mus musculus, V domains shown) VH: EVQLVESGGALVKPGGSLKLSCAASGFTFSNYGMSWVRQTPEKRLEWVATISSGGSYTYYPDTVKGRFTISRDNAKNTLHLQMSSLRSEDTALYYCARRGTNDAWFGYWGQGTLVTVSA VL: DVVMTQTPLSLPVSLGDQASISCRFSQSIVHSNGNTYLEWYLQKPGQSPKLLIYKVSNRFFGVPDRFSGSGSGTDFTLKISRVEAEDLGVYFCFQGSHVPQYTFGGGTKLEIK | – | decreased tumor volume | decreased tumor volume
